Blank lines part the entries; values can stand above or below the binder they belong to.
Tests used:
[1] = molecular target: T1, recombinant human CLL-1 extracellular domain (ECD, amino acids 65-265) fused to an N-terminal Flag (human, UniProt Q5QGZ9 65-265); assay: SPR (Biacore T200), IgG captured by anti-human Fc, human CLL-1 as analyte
T1 construct: The construct and the K244Q SNP are stated for the immunogen; they are not written as a piece; also called huCLL-1-Flag; huCLL-1
T1 chain: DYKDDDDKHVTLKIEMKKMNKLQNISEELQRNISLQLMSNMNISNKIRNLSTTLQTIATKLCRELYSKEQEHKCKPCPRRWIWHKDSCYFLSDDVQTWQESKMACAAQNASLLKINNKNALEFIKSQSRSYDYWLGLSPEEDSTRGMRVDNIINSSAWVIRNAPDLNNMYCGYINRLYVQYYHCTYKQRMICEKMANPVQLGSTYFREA
Method: The binding affinity of the antibodies in this section was determined by BIAcore™ T200 Format. Briefly, BIAcore™ research grade CM5 chips were activated with 1-ethyl-3-(3-dimethylaminopropyl) carbodiimide (EDC) and N-hydroxysuccinimide (NHS) reagents according to the supplier's instructions. Goat anti-human Fc IgGs were coupled to the chips to achieve approximately 10,000 response units (RU) in each flow cell. Unreacted coupling groups were blocked with 1M ethanolamine. For kinetics measurements, antibodies were captured to achieve approximately 300 RU. Three-fold serial dilutions of human CLL-1 was injected in HBS-P buffer (0.01M HEPES pH7.4, 0.15M NaCl, 0.005% surfactant P20) at 25° C. with a flow rate of 30 μl/min. Association rates (kon) and dissociation rates (koff) were calculated using a 1:1 Langmuir binding model (BIAcore™ T200 Evaluation Software version 2.0). The equilibrium dissociation constant (Kd) was calculated as the ratio koff/kon.

[2] = molecular target: T2, recombinant cynomolgus CLL-1 extracellular domain (ECD, amino acids 65-265) fused to an N-terminal Flag (cynomolgus monkey); assay: SPR (Biacore), chimeric IgG captured by anti-human IgG, CLL-1 as analyte
T2 construct: Construct stated for the immunogen; also called CynoCLL-1 Flag; cynoCLL-1
T2 chain: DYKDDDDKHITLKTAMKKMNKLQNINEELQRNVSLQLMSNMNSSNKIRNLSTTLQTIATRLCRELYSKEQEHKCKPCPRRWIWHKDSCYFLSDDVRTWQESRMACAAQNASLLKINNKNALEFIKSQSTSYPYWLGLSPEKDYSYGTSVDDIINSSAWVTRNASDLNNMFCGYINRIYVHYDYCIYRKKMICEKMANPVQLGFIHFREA
Method: (§1) The chimeric anti-CLL-1 human IgG were captured by mouse anti-human IgG coated on the CM5 sensor chip. […] Association rates (kon) and dissociation rates (koff) were calculated using a simple one-to-one Langmuir binding model. The equilibrium dissociation constant (KD) was calculated as the ratio koff/kon.

[3] = molecular target: T1, recombinant human CLL-1 extracellular …; assay: as above
Method: as §1

[4] = molecular target: T3, human CLL-1 on cells (endogenous on HL-60, EOL-1 and other AML cell lines and CD14+ monocytes); recombinant on … (human, UniProt Q5QGZ9 1-265); assay: Scatchard (125I-antibody competition), 293AD/huCLL-1 cells
T3 construct: also called 293AD/huCLL-1; tumor-derived CLL-1
T3 sequence: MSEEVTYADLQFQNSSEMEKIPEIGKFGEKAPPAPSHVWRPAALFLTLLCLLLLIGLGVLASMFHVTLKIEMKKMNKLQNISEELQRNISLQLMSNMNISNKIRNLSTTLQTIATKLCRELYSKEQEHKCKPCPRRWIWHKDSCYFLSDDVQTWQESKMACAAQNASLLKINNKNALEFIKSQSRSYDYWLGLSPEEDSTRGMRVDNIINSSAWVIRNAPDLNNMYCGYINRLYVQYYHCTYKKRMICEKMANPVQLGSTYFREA
Method: (§2) Anti-CLL-1 antibodies were [I¹²⁵] labeled using the indirect lodogen method. […] Competition assay mixtures of 50 μL volume containing a fixed concentration of [1¹²⁵] labeled antibody and decreasing concentrations of serially diluted, unlabeled antibody were placed into 96-well plates. HEK293AD cells stably expressing recombinant hu or cynoCLL-1 or HL-60 tumor cells expressing endogenous CLL-1 were cultured in growth media at 37° C. in 5% CO₂. Cells were detached from the flask using Sigma Cell Dissociation Solution and were washed with binding buffer, which consisted of Dulbecco's Modified Eagle Medium (DMEM) with 1% bovine serum albumin (BSA), […] and 0.1% sodium azide. The washed cells were added to the 96 well plates at a density of 100,000 cells in 0.2 mL of binding buffer. […] The final concentration of the unlabeled antibody in the competition assay ranged from 1000 nM through ten 2-fold dilution steps to a 0 nM buffer-only assay. Competition assays were carried out in triplicate. Competition assays were incubated for 2 hours at room temperature. […] The filters were counted on a Wallac Wizard 1470 gamma counter (PerkinElmer Life and Analytical Sciences Inc.; Wellesley, Mass.). The binding data was evaluated using NewLigand software (Genentech), which uses the fitting algorithm of Munson and Robard to determine the binding affinity of the antibody (Munson and Robard 1980).

[5] = molecular target: T3, human CLL-1 on cells (endogenous on …); assay: Scatchard (125I-antibody competition), HL-60 cells
Method: as §2

[6] = molecular target: T4, cynomolgus CLL-1 on cells (recombinant on HEK293AD cells) (cynomolgus monkey); assay: Scatchard (125I-antibody competition), 293AD/cynoCLL-1 cells
T4 construct: also called 293AD/cynoCLL-1; 293AD/cynoCLL1
T4 chain: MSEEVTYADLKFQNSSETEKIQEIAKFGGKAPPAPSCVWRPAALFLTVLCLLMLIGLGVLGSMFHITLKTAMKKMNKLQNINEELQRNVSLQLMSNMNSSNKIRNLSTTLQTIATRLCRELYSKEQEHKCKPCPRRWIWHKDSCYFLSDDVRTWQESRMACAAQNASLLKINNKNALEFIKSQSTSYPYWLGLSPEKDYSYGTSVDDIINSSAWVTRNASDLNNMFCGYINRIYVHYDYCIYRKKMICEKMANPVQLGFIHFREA
Method: as §2

hCD3ε [7] = molecular target: T5, hCD3ε (human, UniProt P07766 23-126); assay: SPR (Biacore); target printed only as hCD3; format not stated, not the Fab measurement
T5 construct: Also used for the value printed only as 'hCD3 (0.05 nM'); also called human CD3ε polypeptide
T5 sequence (P07766 23-126): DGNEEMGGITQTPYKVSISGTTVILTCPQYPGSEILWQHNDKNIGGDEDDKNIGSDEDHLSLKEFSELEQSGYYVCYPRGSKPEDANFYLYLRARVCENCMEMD

hCD3ε [8] = molecular target: T5, hCD3ε; assay: SPR (Biacore), Fab; Fab
hCD3ε [9] = molecular target: T5, hCD3ε; assay: SPR (Biacore), Fab

- Kd [1]: 8.62 nM
- Kd [2]: 7.1 nM
- koff [2]: 0.0012 s⁻¹
- kon [2]: 160000 M⁻¹ s⁻¹
- Kd [3]: 9.7 nM
- koff [3]: 0.0024 s⁻¹
- kon [3]: 250000 M⁻¹ s⁻¹
- Kd [4]: 0.59 nM
- Kd [5]: 0.45 nM
- Kd [6]: 1.2 nM
B1: ch21C9 (antibody, V domains shown)
VH: EVQLQQSGPELVKPGASVKMSCKASGYTFTDYYLDWVKQSHGESFEWIGRVNPYNGGTIYNQKFKGKATLTVDKSSSTAYMDLNSLTSEDSAVYYCARDHYRYDPLLDYWGQGTTLTVSS
VL: DIQMTQSHKFMSTSVGDRVSITCKASQDVSTAVAWFQQKPGQSPKLLIYSPSYRYTGVPDRFTGSGSGTDFTFTISSVQAEDLAVYYCQQLYSTPYTFGGGTKLEIK
notes: chimeric version of m21C9, human IgG; also called chimeric 21C9; Chimeric 21C9

- Kd [1]: 0.959 nM
- Kd [2]: 1.1 nM
- koff [2]: 0.00046 s⁻¹
- kon [2]: 400000 M⁻¹ s⁻¹
- Kd [3]: 0.9 nM
- koff [3]: 0.00044 s⁻¹
- kon [3]: 460000 M⁻¹ s⁻¹
- Kd [4]: 0.8 nM
- Kd [5]: 0.65 nM
- Kd [6]: 1 nM
B2: ch6E7 (antibody, V domains shown)
VH: QVQLQQSGPELVKPGASVKISCKASGYSFTDYYMHWVKQSHIKSLEWIGRINPYNGAAFYSQNFKDKASLTVDKSSSTAYMELHSLTSEDSAVYYCAIERGADLEGYAMDYWGQGTSVTVSS
VL: DIVLTQSPSSLIVSLGQRATISCRASQSVSTSSYNYMHWYQQKPGQPPKLLLKYASNLESGVPARFSGSGSGTDFTLNIHPVEEEDTATYYCQHSWEIPLTFGAGTKLEIK
notes: chimeric version of m6E7, human IgG; also called chimeric 6E7; Chimeric 6E7

- Kd (hCD3ε [7]): 0.05 nM
B3: 38E4v11 (antibody, V domains shown)
VH: EVQLVQSGAEVKKPGASVKVSCKASGFTFTSYYIHWVRQAPGQGLEWIGWIYPENDNTKYNEKFKDRVTITADTSTSTAYLELSSLRSEDTAVYYCARDGYSRYYFDYWGQGTLVTVSS
VL: DIVMTQSPDSLAVSLGERATINCKSSQSLLNSRTRKNYLAWYQQKPGQSPKLLIYWTSTRKSGVPDRFSGSGSGTDFTLTISSLQAEDVAVYYCTQSFILRTFGQGTKVEIK
notes: also called h38E4v11

- kon (hCD3ε [8]): 5e+07 M⁻¹ s⁻¹
- Kd (hCD3ε [9]): 0.032 nM
- koff (hCD3ε [9]): 0.0016 s⁻¹
B4: 38E4v11 Fab (Fab, V domains shown)
VH: B3 VH
VL: B3 VL
notes: Fab; also called 38E4v11 (Fab Biacore measurements)

Source: patent publication US20200148774A1 (Genentech, published 2020)
